These results are taken from the DeepSol protein solubility set.

The nature of this series: soluble on expression in E. coli; label from the status in PepcDB or PDB records.
For the sequence “MKIAVTKFLGTNCDLDVCHAVKLAGGEPELVFFTQENLDSYKGAVIPGGFSYGDYLRAGAISARTPIIKGLKKMVEEGKPVLGICNGAQIGLEAGFSKGTLTNNLNAKFICKWVYIRVENNKTPFTQYYKKGEVLKIPIAHAEGRFYADDETLDYMYKNNMIVFKYCDETGEVTEEANPNGSIDNIAGVCNENQNCVLLMPHPERASEKILGSDDGLKMFKGMIDYAKRI”, the “soluble on expression in E. coli” value is “soluble”.
The entry for “MGSDKIHHHHHHMNGSATRTVAGVSVPDTTIVARTLDYARLEYEPYLFNHVVRSWLFAVRIAQLRNIDHDAEVVAVGTLLHDVTLNERFDGPRRFEVEGADLARVFAREGGVDERRAQLIWDSVALNSTPSIGLYKEAEVALCTAGIGLDVIGFQYERIPSEEIARIVQEYPRLNMKRRMTKCFCHIAEKRPETTYDNFVRDFGERHILGYRAPSSVDLVANAPFDE” is “not soluble”.
In the case of “MSSEEQDVKIVTSDDVEFIVSPKIANQSKLLADFVVLNQREPIPLKNVTSEIFKKVIEWCEYHAEDIPKPPDNVEEKRTDDIGEWDVEFLKVDKGTLFELVLAATYLDIKGLFNVTCKSIANSIKGKSPEEIRAVFNLGNETNME” it was “not soluble”.
Regarding “MKIITAINEDEWASITHIATTVHLKKDQLIIRKGDPGNKEVFLVNGIVRGFITDENGNEKSTSFFEEGEFMSTQALRTKKGISLYNYQALCRTKLLIFDSKQLKDLLSATKKLSEIGKAIKERELTRLMNRDDCLMQVKALDKYQKFITYYPALERQISQRYIASYLGITPVSLSRLKKSMIVRTDNN”, the “soluble on expression in E. coli” value was “not soluble”.
In the case of “MSNEISDRKVSDTLKDKKPMSLLLLGTDTGEFGRSYKGRTDTIMMMVINPKTNKTTVVSLPRDMKVNLPDYPDYSPAKINAAYTYGGVDETVKTIKKYFNVPTDAYVMVNMGGLEKAIDQVGGVTVKSPLTFDYEGYHFTKGVTYHMNGKKALAFSRMRYDDPRGDYGRQERQRLVIMALLKSSISYKTVVNQTFLNSISKQTMTNLTFDNMVALAQNYRHATDNVTTDHAQGQGDWENGVAYESVSQAECQRISNKLRAALGLKPETLKTGELEHHHHHH” it was “soluble”.
As to “MIASSPIDAAALRASVAAALDPSTAVATLARFDTHAPRLLDALSTLYGDHADYVTWLPQWLSALGVVAQARPAALRHLDDSRAPGWFGQQDMLGYSAYVDRFAGTLRGVAERVPYLQELGVRYLHLLPFLRARAGDNDGGFAVSDYGQVEPALGSNDDLVALTARLRAANISLCADFVLNHTADDHAWAQAARAGDTRYLDYYHHFADRNAPDQYDTTLVQVFPQTAPGNFTWVDETRQWMWTTFYPYQWDLNWSNPAVFGEMALAMLELANLGVEAFRLDSTAYLWKRPGTNCMNQPEAHTILVALRAVADIVAPSVVMKAEAIVPMAELPPYFGSGVQRGHECHLAYHSTLMAAGWSALALQRGDILQDVIAHSPPLPPNCAWLSYVRCHDDIGWNVLQHEAAGTAAQPPFSLREVAQFYANAVPGSYARGESFQSSGDGVHGTNGMSAALVGVQAAHEHADAAAAARAVDRLVLLYAVSLAMPGVPLIYMGDELALPNDTAYLDDAQRRHEGRWLHRPAMAWELAAQRHDASTLAGTVYTRLRALIRLRAGLPALAATQSLGSVALGDARLFALTRGDSFLAVHNFSDVPLPVDLTQTGHALWAVLDTDGTGDAPEPHTELLLPAYGVRWLQRR”, the “soluble on expression in E. coli” value is given as “soluble”.
In the case of “MDEIPADIRNEIIYYYRLSRKVLLGLYNKSIIFVLPSIVEGMPSPPLEAMACGCAVVVTDNGGVNEYIKDGLNGIVCPVRDSYCLYQKVILLINNKALREQMIQDGLETAKEFSYDNMNKNFIRLIEEVQRRKSLEHHHHHH” it was “not soluble”; in that of “MGSTSSLYAAIDLGSNSFHMLVVREVAGSIQTLTRIKRKVRLAAGLNSENDLSNEAMERGWQCLRLFAERLQDIPPSQIRVVATATLRLAVNAGDFIAKAQEILGCPVQVISGEEEARLIYQGVAHTTGGADQRLVVDIGGASTELVTGTGAQTTSLFSLSMGCVTWLERYFADRNLGQENFDAAEKAAREVLRPVADELRYHGWKVCVGASGTVQALQEIMMAQGMDERITLEKLQQLKQRAIHCGRLEELEIDGLTLERALVFPSGLAILIAIFTELNIQCMTLAGGALREGLVYGMLHLAVEQDIRSRTLRNIQRRFMIDIDQAQRVAKVAANFFDQVENEWHLEAISRDLLISACQLHEIGLSVDFKQAPQHAAYLVRNLDLPGFTPAQKKLLATLLLNQTNPVDLSSLHQQNAVPPRVAEQLCRLLRLAIIFASRRRDDLVPEMTLQANHELLTLTLPQGWLTQHPLGKEIIAQENQWQSYVHWPLEVH”, “not soluble”.
The entry for “MGSDKIHHHHHHAQSKSSVYKPWSHGQLKVSKENRYLMNADGTPFFWLGDTGWLLPEKLNRDEAAYYLEHCRQAGFNVVQVQTINGVPAMNFYGQYSMIDGFNFKNIDRKGVYGYWDHMDYIIQKAEQNGIYIAMVCIWGGLVRSGKMNVEEAKAYGRFLGERYKDAPNIIWVIGGDTYADRNTEIWEALANSILAVDENHIMTFHPFGRTSSATHLNNKEWMDMNMFQSGHRRYGQKKGDGDTSVTGLEEDNWRYVEEALSMTPLKPVLDAEPSYEGIPQGLHDPAQPRWRDCDVRRYGYWSVFAGSCGHTYGHNNIMQFLKPGTPGGYGADGIEKPWYKAMQDPGFNQMKYLKNLMLTFPYFERVPDQSVIAGTNGNRYDRAIATRGKDYLLVYNYSGNPMSVDLTKISGAKKKVWWYSPKDGKLSFIGEFDSKITPFTYDGSYNRDNDQVLIAIDSSKNYISTEWLELPMVNQ” is “not soluble”; for “MAHHHHHHMSTLRHSHEPSPYVQKGEDLSGQKLTPTIKSYRNMEFLNSYSGRMIRILCEFEEPKQRLQQHFIRTTVLFFGSARSMTQAQYDSTVQDIHSKLAAATDDSTKASLQNKLACLKKTQWMCKWVDVVENLARMVAEFSQKEQDMIIRSFRHIPDYFRLTPEDGSESLDDLQKRFHDLVVTTGGGPGFMEAANHGAESVPGAVTMGMGISLPFENGLNPHVTKGLAFEFHYFFTRKFWMMYSCRAIVIAPGGFGTLDEMFELLTLKQTKKIPSLPVVLLGKEFWQTVVNWQALANYGVISQEEIDSLLFTDSAEEAVEHIKDFYHRLASDSPSTE” it is “not soluble”.
Consider “PNARSQPSKTLFVKGLSEDTTEETLKESFDGSVRARIVTDRETGSSKGFGFVDFNSEEDAKAAKEAMEDGEIDGNKVTLDWAKPKGEGG”, for which the “soluble on expression in E. coli” value is given as “soluble”.
The entry for “MGSDKIHHHHHHMLTYTVYSEAGGVGKTTMAANLAVADARAGHDVLAIDMDPQEGSLSFLFDVADHRTDSEADSLVRHLVERPRGPFSDLIETSEGVDVLPAHNSLEVLSKHLRRREEEAADFGENWNPNVQLLRVLKDAGVPSEYDTVIIDPPATADVKLYNALHATRNLVIPFEPSGKGQQSVAGLADLVTGLEDTLDINVGVLAAVPNRFKGTNDQEEMLKRLQAESYDIPVVFRERTSLLEGCWRKQCSAFKYIEEHRSRERDYEIETLEQFEELAAHLRQTREQEATA” is “not soluble”.
Consider “MGHHHHHHSHMAGTALKRLMAVYKQLTLNPPEGIVAGPMNEENFFEWEALIMGPEDTCFEFGVFPAILSFPLDYPLSPPKMRFTCEMFHPNIYPDGRVCISILHAPGDDPHGLREQPERWSPVQSVEKILLSVVSMLAEPNDESGANVDASKMWRDDREQFYKIAKQIVQKSLGL”, for which the “soluble on expression in E. coli” value is “not soluble”.
For the sequence “MGSDKIHHHHHHMITEELEVGYNVPATVGMDEADIQTPCLILDLDALERNVKKMGDYAKAHNMRHRSHGKMHKSVDVQNLQEELGGAIGVCCQKVSEAEVFVRGGIKDVLVSNQVRNPAKIERLANLPKLGSTITVCVDDIDNVAELSAAATKAGTELNCYIEIDCGAGRCGVTTTEAVVEIAKAIDAAENLKFTGIQAYQGAMQHMDSFSDRKAKTQIAIDQVQEAIDALTEIGLKPEFVSGGGTGSYYFESNSGVFNELQCGSYAFMDADYGRILDEDGNRIDAGEWENALFILTSVMSHAKADKAIVDAGLKAQSVDSGLPFVYGRDDVEYVKCSDEHGVVSDPNGVLEINEKLKLVPGHCDPTCNVHDFYIGVRNGKVETVWPVSARGKMY”, the “soluble on expression in E. coli” value was “not soluble”.
The entry for “MGSDKIHHHHHHMNPGWRVVDLIDFDGKVSYQRGQLAITSDSGELRATLPLAQIAVVLIGNKLIISGAVLVKLSEYDIAVLVCDWRRVPVAGSFSWNEHTRIAARQRAQASLSLPRQKSAWAQIIKAKILGQARTAAQLGFDATDLKNLARAVRSGDVDNREAMAAKRYWEIISAEDDFRRLPGLAATGWNGALDYAYTVLRGHGMRAICSAGLVGTLGVFHHGRGNQFALVDDLIEPFRPAIDYAVFSIVSNSQELDKETKRQLVAAVEEPFNSAGQSIPTVFTAFAQQYGRYVEGDVEKLVPPIWEGPFDAEER” is “not soluble”; for “PRYTEVTEEQIIVKQIWGQLVFDRKEMEIVPIGKDDLKSSLRTFGNGGLFGYAGYFRNKKLGKYRMYVTRLKDLSLLTDRNGKKTVINLRQV” it is “not soluble”.
Regarding “MGSDKIHHHHHHMGVVRTDKWLKRYVVQWPKAQVAGEKFELQQKLIISLLKDAFHTDHLDELQQQLLGQGLFLPTDDIELSYRALQDRAIWHLVHKQYTELREKWKGPNVPIYLFPVNTANPTIREQLGMKMGVSYRDKIVLFIGEMTSDQDVQALVTHEYHHCCRLTQLKLYEGTMTLLESMVMEGLAEKAVAEEVGRDALAIWTSRYDKADLHSLWALLLEQRMMKGRDRHYPYLFGGVGGIPEWAGYYLGYRIVDQAMKNDPTLTTTSMMKMEAEAILQRSFSAKRGRAVAVRGREISRDHS”, the “soluble on expression in E. coli” value was “not soluble”.
The entry for “MSLDLAADILVADAHMHTNPTRGLGAREVARRFRREGGWFAALLTLTTWSYGLAPTGVEAYRRMYEIHLRECRAAREEGLRVACFAGIHPAEVDRMIDKHRQPPEKALETALEAVEVLRRLCREGAIDGVGEVGRQHYRTSPLRVAIAEVVLEEAAAAALEEGCLLQLHLENEGPATVETVDRILRRAGATGARRGMVIFHHATLRVAKEAVARGYNATIPGVPKLLEHAAANEPPDYMVESDYLDDPARPGAVVEPWKMAQKLREIASRTPETREWVRRTNIDLVERVFQASPPEGHHHHHH” is “soluble”.
On to “MGSDKIHHHHHHMVIYMIGGSPCSGKSTIASLLARQYQLLHIKLDDLVDEMMSQASADSQPICLLRQDRNPEQIWMRNPKEMADEEWRFYEEIFPYVKSYLIKKDRPLLVEGAGLLPHLVKELEWPASSYLCLTPTADFQKKHYRQREWVSYVLEGTTNPEQAFENWMQRDILFAQMVRKEAMRLGYSSLMTDGSQSEKQTAEEIARLLKLYNINEIDIKGENT”, for which the “soluble on expression in E. coli” value was “not soluble”.
The entry for “MDNLLNEKKLTIFTSNEIQDNLNRVLKDYEQNGIIGLNGYLNQANRISLLNELEIMQKDAEQDIARYWNNKIIHFYSKDPLKPESVDREYVTEPYFQASSNKAHVFYEVIDNMRVVNRIGHGMHLINRYPMMQRAVYDSPVLLDLLKGIGFKKPICHLSVYIPKYPNGIGSEVRPHQESTFAFTEPQSVVVLWVALEDALIENACMYGVLGSNHWPLKWVSKVDRETKTRHFEQVHQLHIPDFMTEREFYTALEVKAGDALLFHGNFVHCSPMNTSKNSRKALSFQFIETYEVDYPETNWLYPPNKVYLYLEHHHHHH” is “not soluble”; for “MKMARMSKKKKLEMLDVARDEERNRIIRLLTEDDNFTPSLEPLIDNYLDAFIIYKTMFEEWKADGFAPTKTHKNKAGAVNEMKHPLAQQVETWNDKKNKMLEALGMTNKGKSVQKTPKNAENIQTDEPKDELAAHRNKWRKSK” it is “not soluble”; for “MNMPLMIDLTNKNVVIVGGGVVASRRAQTLNQYVEHMTVISPTITEKLQNMVDNGVVIWKEKEFEPSDIVDAYLVIAATNEPRVNEAVKKALPEHALFNNVGDASNGNVVFPSALHRDKLTISVSTDGASPKLTKSIMAELEALYPPSYSSYIDFLYTCRQKIKVLDITYNEKQQLLSQIVSQEYLNHDKQAQFLAWLDVR” it is “not soluble”.
